These results are taken from patent publication US20100158808A1, “Altered Activity of Toll-Like Receptors” (priority 2003, published 2010).

The target of this experiment is T1, TLR4 (Mus musculus, UniProt Q9JHF9+Q9QUK6).
T1 sequence (Q9QUK6 26-835): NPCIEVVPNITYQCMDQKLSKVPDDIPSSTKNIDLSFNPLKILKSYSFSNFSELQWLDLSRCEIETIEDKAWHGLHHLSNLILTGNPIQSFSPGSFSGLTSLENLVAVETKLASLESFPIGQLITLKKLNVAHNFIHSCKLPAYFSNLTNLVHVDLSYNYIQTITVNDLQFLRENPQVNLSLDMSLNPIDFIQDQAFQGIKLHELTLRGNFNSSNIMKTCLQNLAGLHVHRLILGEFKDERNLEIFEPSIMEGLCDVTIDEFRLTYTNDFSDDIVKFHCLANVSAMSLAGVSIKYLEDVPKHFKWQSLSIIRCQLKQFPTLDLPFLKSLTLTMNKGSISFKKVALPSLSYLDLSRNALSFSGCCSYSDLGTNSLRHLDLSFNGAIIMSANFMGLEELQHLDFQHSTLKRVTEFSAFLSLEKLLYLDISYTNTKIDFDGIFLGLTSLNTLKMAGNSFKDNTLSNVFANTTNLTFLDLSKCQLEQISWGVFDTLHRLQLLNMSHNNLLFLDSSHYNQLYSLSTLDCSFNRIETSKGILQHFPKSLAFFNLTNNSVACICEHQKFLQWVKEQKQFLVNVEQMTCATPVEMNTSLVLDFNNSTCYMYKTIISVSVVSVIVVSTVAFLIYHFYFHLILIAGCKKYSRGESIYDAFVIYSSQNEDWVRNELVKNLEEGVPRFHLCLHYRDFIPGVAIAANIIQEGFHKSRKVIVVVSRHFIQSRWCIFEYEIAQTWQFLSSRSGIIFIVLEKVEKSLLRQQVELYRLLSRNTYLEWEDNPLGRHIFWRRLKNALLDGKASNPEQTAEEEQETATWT
T1 sequence (Q9JHF9 19-160): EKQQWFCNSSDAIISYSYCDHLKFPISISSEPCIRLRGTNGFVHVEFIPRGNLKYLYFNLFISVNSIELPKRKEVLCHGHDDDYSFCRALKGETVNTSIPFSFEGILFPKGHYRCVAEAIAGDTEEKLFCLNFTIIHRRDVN
Kind of experiment: NFκB-luciferase reporter assay in HEK 293 cells stably expressing TLR4, MD2 and/or CD14. The format is cell-based, murine. On the set-up: expressed in transfected cells; host or cells: HEK 293. How it is done: Model ECM environment. Tissue culture plates were coated with ECM as follows. PAEC were seeded into 6-well (3×10^5 cells/well), 24-well (5×10^4 cells/well) or 100 mm (2×10^5 cells) fibronectin-coated tissue culture plates (BD Biosciences, San Jose, Calif.) in DMEM (Invitrogen) containing 10% fetal bovine serum supplemented with penicillin and streptomycin and 4% w/v of Dextran 40. The cell cultures were incubated at 37° C. in 5% CO2 humidified atmosphere for seven days and were supplemented with […] on day three and day five. After 7 days, endothelial cells were washed once with phosphate buffered saline (PBS) and lysed by exposure to 0.5% w/v Triton X-100 and 20 mM NH4OH in PBS (pH 7.4) at 37° C. for 20 minutes (Bonifacino, 1998). The wells were then washed 4 times with PBS (pH 7.4) and inspected microscopically to ensure removal of the cells. Plates were used immediately or were stored in PBS (pH 7.4) with […] at 4° C.
HEK 293 cells were stably transfected with the TLR4 and MD2 or CD14 expression plasmids using Superfect (Qiagen, Valencia, Calif.) following the manufacturer's instructions. HEK 293 cells expressing TLR4 and MD2 or CD14 were obtained by culturing the transfected cells with appropriate antibiotic selection medium, and were cloned by limiting dilution in the selection medium. HEK 293 cells expressing TLR4, MD2 and CD14 were generated by transfecting HEK 293 cells that expressed TLR4 and MD2 with the CD14 expression plasmid, and selecting clones using appropriate antibiotic containing medium. Cell lines expressing TLR4 and MD2 and/or CD14 were then maintained in DMEM supplemented with 10% fetal bovine serum and the appropriate selection antibiotics. Control cell lines were transfected with empty expression vectors and incubated in selection conditions as described above. Selected clones were tested for cell surface expression of the TLR4/MD2 complex and CD14 by flow cytometry using monoclonal antibodies specific for the TLR4/MD2 complex or CD14.
NFκB-luciferase reporter assays. Activation of NFκB was measured using a NFκB-luciferase reporter assay. HEK 293 cell lines stably expressing TLR4, MD2 and/or CD14, or control cells were seeded into 24 well tissue culture plates (2×10^5 cells/well) in 1.0 ml DMEM containing 10% fetal bovine serum and penicillin and streptomycin. The cells were allowed to adhere to the culture wells at 37° C. overnight and were then transfected with […] NFκB-firefly-luciferase using Superfect Transfection Reagent (Qiagen). Following transfection, the cells were washed once with phosphate buffered saline and cultured for 24 hours at 37° C. in 1.0 ml DMEM containing 0.5% fetal bovine serum. After various treatments, the culture medium was aspirated and the cells were washed once with PBS. The cells were lysed in […] Passive Lysis Buffer (Promega) with rocking at room temperature for 15 minutes. Renilla- and Firefly-luciferase were assayed simultaneously using the Dual-Luciferase Reporter Assay System (Promega) and a TD-20/20 luminometer (Turner Designs, Sunnyvale, Calif.). Activation of NFκB was reported as a ratio of the firefly luciferase activity to the constitutively expressed Renilla luciferase internal control, and is the mean of triplicate wells.
To determine whether and under what conditions HS stimulates TLR4, various combinations of TLR4, MD2 and CD14, components of the putative TLR4 receptor complex, were stably expressed in HEK 293 cells and the effect of HS on TLR4 signaling in the transfected cells was examined (FIG. 1). The HEK 293 cells expressing receptor components were transiently transfected with a NFκB-firefly luciferase reporter construct along with a Renilla-luciferase internal control reporter construct. […]

Setting [1] is: HEK 293 cells lacking TLR4 and MD2 or CD14.
Setting [2] is: HEK 293 cells that expressed TLR4, MD2, and CD14.

On to “elastase: pancreatic elastase (Calbiochem; type IV porcine pancreatic elastase, Sigma-Aldrich), protease that cleaves ECM proteins”, for which the “NFκB reporter response to elastase alone” value reads like this: (HEK/TLR4(+) cells cultured in ECM, elastase 0.1 U/ml, no HS) “did not respond”; (HEK/TLR4(+) cells cultured on ECM, elastase 0.3 U/ml) “responded even without addition of HS”. The “Activation in response to HS relative to cells not treated with elastase” value (HEK/TLR4(+) cells on ECM, elastase 0.1 U/ml plus HS) was found to be 2 fold. For the same substance, the “Activation of reporter expression after elastase pre-treatment and treatment with HS or LPS” value (HEK/TLR4(+) cells on PAEC ECM, versus control cells not pre-treated) is “greater”. The “NFκB reporter response to elastase” value (HEK/TLR4(+) cells on fibronectin, elastase 0.1 or 0.3 U/ml) is given as “did not respond to either concentration of elastase”.
heparan sulfate [HS]: the “Activation of NFκB-luciferase reporter” value runs as follows: under setting [1], “did not respond”; under setting [2], “activated”.
With lipopolysaccharide [LPS], the “Activation of NFκB-luciferase reporter” value reads like this: under setting [1], “did not respond”; under setting [2], “activated”. For the same substance, under “HEK/TLR4(+) cells, nitrous acid pH 4.0 or pH 1.5”, the “Effect of nitrous acid treatment on ability to stimulate TLR4” value was “did not affect”.
